Results as given in patent publication US6919204B2, “Modulation of gene expression using localization domains” (Sangamo Biosciences, Inc., priority 2000, dated 2005).

Experiments:
[1] = tested on: G5DE5tkLuc reporter in S2 cells; test: Effect of Trichostatin-A on Gal4-tethered repression; type: cell-based, Drosophila; conditions: TSA 100 nM and 400 nM, 24 h before harvest
Procedure: (§1) Drosophila S2 cells were grown in Schneider's medium (Sigma) at 27° C. containing 10% FBS and penicillin/streptomycin. Cells were transfected using the Superfect reagent (Qiagen) following the manufacturer's directions. Transfection assays included 1.5 μg of either the pG5DE5tkLuc reporter or the p-37tkRLuc internal control, essentially as described in Chen et al. (1998) Mol Cell Biol 18:7259-7268. The Gal4 DNA binding domain constructs, pACTIN-SV-Gal4-Gro, pACTIN-SV-Gal4-MBD and pACTIN-SV-Gal4-MBDΔ were constructed by insertion of the Gal4 DBD into the HindIII/PstI sites of pACTIN-SV followed by insertion of Gro, dMBD-like and dMBD-likeΔ into the EcoRI site of the resulting plasmid. Quantities of individual Gal4 plasmids were varied as described in the figure legends. The total amount of plasmid was normalized to 4 μg by addition of pACTIN-SV vector (Huynh et al. (1999) J. Mol Biol 288:13-20) as carrier. Cells were harvested 12 h after transfection and luciferase assays were performed using an Enhanced Luciferase Assay Kit (Pharmingen) according to the manufacturer's instructions. Where indicated, transfected cells were treated with Trichostatin A (TSA, Wako) for 24 h before harvest. If dMBD-like represses transcription through recruitment of a Drosophila Mi-2 complex, transcriptional repression should be sensitive to inhibitors of histone deacetylases. Accordingly, the effect of Trichostatin-A, a histone deacetylase inhibitor, on dMBD-like-mediated repression was tested.

[2] = tested on: G5DE5tkLuc reporter in S2 cells; test: Cotransfection transcription assay, Gal4-tethered repression of luciferase reporter; type: cell-based, Drosophila; conditions: transfection into S2 cells; protein not tethered
Procedure: as §1, with “If dMBD-like represses transcription through recruitment of a Drosophila Mi-2 complex, transcriptional repression should be sensitive to inhibitors of histone deacetylases. Accordingly, the effect of Trichostatin-A, a histone deacetylase inhibitor, on dMBD-like-mediated repression was tested.” left out

[3] = tested on: methylated (GAM12) and unmethylated (GAC12) DNA probes; test: Southwestern assay with immobilized recombinant protein; type: binding
Procedure: (§2) Gel mobility shifts were performed in 10% polyacrylamide gels run in 0.5×TBE buffer (45 mM Tris, pH 8.0, 45 mM boric acid, 1 mM EDTA) using GAC12 or GAM12 double-stranded oligonucleotide probes, essentially as described in Wade et al. (1999) Nature Genet. 23:62-66. One picomole of radiolabelled probe was mixed with purified recombinant protein as indicated in the figure legends in 10 mM Tris HCl pH 8.0, 3 mM MgCl2, 50 mM NaCl, 0.1 mM EDTA, 0.1% NP-40, 2 mM DTT, 5% glycerol and 0.4 mg/ml BSA. The samples were incubated for 30 min at 37° C. 30 pmoles of competitor DNA (GAC12 or GAM12) were used per binding reaction. Gels were scanned on a Phosphormager (Molecular Dynamics). The procedure used for southwestern assays is as described in Wade et al. (1999), supra.
In Southwestern assays using immobilized protein, neither isoform interacted with the probes, regardless of methylation status (FIG. 1C). Thus, either the proteins fail to bind or they are unable to refold on the membrane surface.

[4] = tested on: methylated (GAM12) and unmethylated (GAC12) DNA probes; test: Gel mobility-shift assay (solution binding); conditions: GAC12 or GAM12 probe; 50, 75, 150 ng protein
Procedure: as §2
Solution interactions with DNA were also examined using an electrophoretic mobility shift assay (FIG. 1D). […] No interaction was detected under these conditions, even non-specific aggregation.

Molecule	relief of repression by Gal4-Gro [1]	relief of repression mediated by tethered dMBD-like [1]	relief of repression mediated by tethered dMBD-likeΔ [1]	transcriptional repression lacking the Gal4 DBD [2]	binding of immobilized protein to DNA probes (Southwestern) [3]	binding to DNA in solution (electrophoretic mobility shift) [4]
CC(/C=C/C(=O)NO)=C\[C@@H](C)C(=O)c1ccc(N(C)C)cc1 [Trichostatin-A]	relieves repression	largely relieved	largely relieved			
dMBD-likeΔ: shorter Drosophila MBD-like isoform, product of the 842 base mRNA (SEQ ID NO:15) (protein) MQMNPSVTIERKRVDCSVLPKGWQRDEVRKSGSSANNNASSNNNSSATASSNNNNNKVDVFYYSRALRTDVSLVPPIRQTASIFKQPVTVIRNHKQDPAKAKNEPKHGTREKPKQLFWEKRLERLRACHDSGEELDDISLPKTIRTVGPNVNEQTVLQSVATALHMLNAGVHGQSSTKADLTKNAMAFMNPEQPLMHAVIISEDDIRKQEDRVGVARRKLQDALKT				failed to repress transcription		
dMBD-like: Drosophila methyl CpG binding domain protein homolog, product of the 1115 base mRNA (SEQ ID NO:14) (protein) MQMNPSVTIERKRVDCSVLPKGWQRDEVRKSGSSANNNASSNNNSSATASSNNNNNKVDVFYYSPTGKRAEGKPQDIAIPDFQPGKMPHCALPSPSISLYRCSAMPLPIASGGGNGATSGSAANALKRKFARSQGGNAAGAAGAAPPAATASSAATATAASASPSTANRQQQQIELSRALRTDVSLVPPIRQTASIFKQPVTVIRNHKQDPAKAKNEPKHGTREKPKQLFWEKRLERLRACHDSGEELDDISLPKTIRTVGPNVNEQTVLQSVATALHMLNAGVHGQSSTKADLTKNAMAFMNPEQPLMHAVIISEDDIRKQEDRVGVARRKLQDALKT				failed to repress transcription	fails to bind methylated DNA	fails to bind methylated DNA in solution
